Experimental data: the DeepSol protein solubility set

Assay: soluble on expression in E. coli; label from the status in PepcDB or PDB records

Row | Sequence | soluble on expression in E. coli
1 | MQAKIKNKRVLVKFSGEALAGDNQFGIDIHVLDHIAKEIKSLVENDIEVGIVIGGGNIIRGVSAAQGGIIRRTSGDYMGMLATVINAVAMQEALEHIGLDTRVQSAIEIKEICESYIYRKAIRHLEKGRVVIFGAGTGNPFFTTDTAATLRAIEIGSDLIIKATKVDGIYDKDPNKFKDAKKLDTLSYNDALIGDIEVMDDTAISLAKDNKLPIVVCNMFKKGNLLQVIKHQQGVFSMVKLEHHHHHH | not soluble
2 | MGNKLFVLDLGEIRVDENFIIANSTFVTPQKPTVSSRLIDIPVSAYLIQCTDATVLYDTGCHPECMGTNGRWPAQSQLNAPYIGASECNLPERLRQLGLSPDDISTVVLSHLHNDHAGCVEYFGKSRLIAHEDEFATAVRYFATGDHSSPYIVKDIEAWLATPRNWDLVGRDERERELAPGVNLLNFGTGHASGMLGLAVRLEKQPGFLLVSDACYTATNYGPPARRAGVLHDTIGYDRTVSHIRQYAESRSLTVLFGHDREQFASLIKSTDGFYE | soluble
3 | MGSDKIHHHHHHMSNQFMFADETSQQTTKLPTEYWKILIVDDEPEVHAVTKLALNDFNFLGRGLKFYSAFSGEEAKRLIDEHPDAAILLLDVVMETDDAGLQVARYIREEADNHFTRIILRTGQPGQAPERTVIVNYDINDYKSKTELTAQKLFTAVMSSLRSYRDIMSIDQSRHGLEKIIAASANLYALQPMNSFVDGLVQQLSWVIGGAKQTLYATSNEDGSSYKVLAAHGEDSGVCVGQTLRSVIPSKALAELEHVIANHGSYYGDDFVLLYCRSHCRSHGSVLFIGGLSRALTADDHHVLQLFSENVQLAQDNVVCLEDSDQFLARLADQLMLHHASHFNGILEQNSEVRLAYAVAQKVAAEDAETTALAWSLFAQARPLLNCASDAAAAVETTCQQRVARSLRALGHGEHEATQNAHRALIERLERWDGLGLPEGKQGSDIAISTQVLLLTEQLLDWWESGISDSDIAVRLKDERGRYYSPKFLDVVIKSLPELRTI | not soluble
4 | MDVASALEGNWEFRVDHKNIKIFSSKIRGSQVLGFKGEAVFEASLRKLISLFHDFGNYGKWVHQLSEMEVLHKSDELDYVVRQVLNTPWPIPKREMIVRTALHASEEGALALTMTGIPDYVPLKPDFHRVREARGGWILMPVDGGKVHVTFVMHLDPGSDIPPALSNAALFEVPFYSLLKMRDLAQNPSYKPAWPSVVDNHVTIIEDVPDKHLEHHHHHH | soluble
5 | MQGTKIRLMVGGLLLAAASNNVQAEALQPDPAWQQGKLDNGFSWQLLATPQRPSDRIELRLIVNTGSLSENTQEVGFAHLLPRLALMSSASFTPAQLQSLWQQGIDNERPLPPAITSYDFTLYSLSLPNNRPDLLKDALAWLSDTAGNLAVSEQTVNAALNTATDPIATFPQNIQEPWWRYRLKGSSLIGHDPGQPVTQPVDVEKLKQFYQQWYTPDAMTLYVVGNVDSRSIAAQISKAFSELKGKRTAPAAVATLAPLPPEPVSLMNEQAAQDTLSLMWDTPWHPIQDSMALSRYWRSDLAREALFWHIKQVLEKNNQKNLKLGFDCRVQYQRAQCAIHLNTPVENLTANMTFVARELAALRANGLSQAEFDALMTQKNDQLSKLFATYARTDTDILMSQRLRSQQSGVVDIAPEQYQKLRQAFLSGLTLAELNRELKQQLSQDTTLVLMQPKGEPEVNVKALQEIYNGIMAPQTVAEEEVAPAEAVETAPVMPTTAQ | not soluble
6 | MKIRALLLALGMATVLTGCQNMDSNGLLSSGAEAFQAYTLSDAQVKALSDQSCQELDSKAKIAPASSEYTKRLAKIAAALGDNINGQPVNYKVYETKDVNAFAMANGCIRVYSGLMDMMTDNEVEAVIGHEMGHVALGHVKKGMQVALGTNAVRVAAASAGGVVGSLSQSQLGDLGEKLVNSQFSQRQESEADDYSYDLLRKRGISPAGLATSFEKLAKLEAGRQSSMFDDHPASAARAQHVRDRMSADGIKLEHHHHHH | soluble
7 | MDLEPIFLTPVFQERIWGGTKLAERFGYDIPSSQTGECWAVSAHPHGQTVVARGPFAGMTLGQLWEERRDLFGHFPSDRFPLLTKILDANADLSVQVHPDDEYAKTHEGGELGKTECWYIIDCKPGAKLIYGHYAETKGELRAMMEAGEWDRLLRKVPIRPGDFFYVPSGTIHALCEGTLVLETQQSSDTTYRVYDYDRVDSQGRKRELHLEKAIDVTTVPHRDIDVHPHVAEFPGATVTTFVEGDYFGVQKWDVHDAFASEQTKPFLIVSILKGEGELVHHERIYAIRQGDHFILPHQFGRFTIRGMLEAIASWPRAGK | not soluble
8 | MAHHHHHHMENVAKLQRQNASLKDRVSALEEQLAGATSSLARTGDCEQQISLLIERLGKEKERHKAVAEERNQLKDHLQDLEEEVEEYRTREEGWISGQERQQENEIAAQQRIAQLENDMRSCNAIVDNLTTQLTEAKHLNGVLQNQVKELKVSYSAQLDTVKESSSETVDQLRQEVEQLRSSLQNLSTEYDTRTAELEREVQNANMHAHQAEARLSEMALGSVNTLQDLRSELEDSQRSSATWKAEAQKARHEYTTLLEQYASLKRSRAAAEADLRDRLSYESNTVSALRKGIREWEDRYLALQESVGATQTEIEEQRKTIMQLEATIQKLKASGSDMLSPSQSEVVVSTNAPPVKASFSEPSLSGLPLDEILGRRLMPAPPLNPFMSMERPAWSDSRDRKTRERLEQEVVRQSAELERVRAAVADAEVWKAKYDRLQEEHDLLLQLYGQLEEDVSALRKNGAGILSADAAATSSTSGSVSAAAVP | soluble
9 | MGSDKIHHHHHHMAETSIEWTDVTWNPVAGCTVLTAGCTNCYAMRMAARLEAMGVEKYAGLTRKSGGRAKWTGRIFLDRKALSIPASWSKPRRVFVNSMSDLFHSDVPTDFISDVWKVMAQTPRHTYQILTKRPDRMVEIVPGLAKLRNVWLGTSVEDARVIYRIDKLRQVPAAVRFVSFEPLIGSVSGAGLRNIHWAIVGGESGPKARSMDPAWVDEIESMCRDQGAAFFFKQWGGKNKKAAGRTLNGRLYDEMPAPSMP | not soluble
10 | MGSDKIHHHHHHMSLEATDSKAMVLLMGVRRCGKSSICKVVFHNMQPLDTLYLESTSNPSLEHFSTLIDLAVMELPGQLNYFEPSYDSERLFKSVGALVYVIDSQDEYINAITNLAMIIEYAYKVNPSINIEVLIHKVDGLSEDFKVDAQRDIMQRTGEELLELGLDGVQVSFYLTSIFDHSIYEAFSRIVQKLIPELSFLENMLDNLIQHSKIEKAFLFDVNSKIYVSTDSNPVDIQMYEVCSEFIDVTIDLFDLYKAPVLRNSQKSSDKDNVINPRNELQNVSQLANGVIIYLRQMIRGLALVAIIRPNGTDMESCLTVADYNIDIFKKGLEDIWANARASQAKNSIEDDV | not soluble
11 | MTKHARFSLLPSFIIFSAALLAGCNDQGDTQAHAGEPQVTVHVVETAPLAVTTELPGRTSAFRIAEVRPQVSGIVLKRNFTEGSDVEAGQSLYQIDPATYQADYDSAKGELAKSEAAAAIAHLTVKRYVPLVGTKYISQQEYDQAIADARQADAAVVAAKAAVESARINLAYTKVTSPISGRIGKSNVTEGALVTNGQSTELATVQQLDPIYVDVTQSSNDFMRLKQSVEQGNLHKDSASSTVQLVMENGQVYPIKGTLQFSDVTVDESTGSITLRAVFPNPQHSLLPGMFVRARIDEGVQPNAILVPQQGVTRTPRGDAMVMVVNDKSQVEARNVVAAQAIGDKWLISEGLKPGDKVIVSGLQKARPGVQVKATTDAPAAKTAQ | not soluble
12 | MLPEKSEIVVIGGGIVGVTIAHELAKRGEEVTVIEKRFIGSGSTFRCGTGIRQQFNDEANVRVMKRSVELWKKYSEEYGFSFKQTGYLFLLYDDEEVKTFKRNIEIQNKFGVPTKLITPEEAKEIVPLLDISEVIAASWNPTDGKADPFEATTAFAVKAKEYGAKLLEYTEVKGFLIENNEIKGVKTNKGIIKTGIVVNATNAWANLINAMAGIKTKIPIEPYKHQAVITQPIKRGTINPMVISFKYGHAYLTQTFHGGIIGGIGYEIGPTYDLTPTYEFLREVSYYFTKIIPALKNLLILRTWAGYYAKTPDSNPAIGRIEELNDYYIAAGFSGHGFMMAPAVGEMVAELITKGKTKLPVEWYDPYRFERGELRTAALQMG | soluble
13 | NKDMNFTIRANYTFSQNVIDYFEENKLPYDYLSVTGKPFNILRGYISEGLFASKEEINTSPDQSGFGTIRPGDIKYRDVNGDGIINEDDKVPLSYSNQLPRMMYGFGGDFQWKDLTVSILFKGSAKVDYYRAGLGNDYGWIPFYNGDLGNVIKLANNPKNRWTPAWYSGTTATENPNAEFPRLSYGKNTNNSQLSSFWRRNGSFLRLQEVSLRYSLKHLPWIKSVGLSSVDLEFVANNLFTIDKVKYFDPEQASANGAVYPIPATYAFQVYLRF | not soluble
14 | MIGYVLNGEHEEIPYGELMALLEIFNYNGSVERLKRYVITEDSPAKDIVKRSGYIDEGHRIIFRYNLEEKSVDLVDKIVNDFINSFKDFVANIDYPDIDESKSYAVRVLKLHKDEFTKSIDSLRIEKEIGGIIKLKTNAKVNLTKPDILVRVVILENTFFISNVLEMRDREYFQKNRPHLRKYFHPGCMLPKLARAMVNLARVKEGDIVLDPFCGTGGFLIEAGLIGAKLIGCDIDWRMASGTLINLEEYNLLDKVIKVKRLDAKYVKEFLNELNIEKVDAIVTDPPYGISTAKKGEIEKILETLPEVIKDNGYFVFAYPKKIELDMELEGLYKVYIHKGLIRHIHVYKKI | soluble
15 | GMISPERLRVYRFFASLTDEQLKDIALISEEKSFPTGSVIFKENSKADNLMLLLEGGVELFYSNGGAGSAANSTVCSVVPGAIFGVSSLIKPYHYTSSARATKPVRVVDINGARLREMSENNQALGQVLMNNVAAAVLARLH | soluble
16 | MGSDKIHHHHHHMFRLQFRLFPPLRTAMHILLTALLKCLSLLPLSCLHTLGNRLGHLAFYLLKEDRARIVANMRQAGMNPDPKTVKAVFAETAKGGLELAPAFFRKPEDIETMFKAVHGWEHVQQALDKHEGLLFITPHIGSYDLGGRYISQQLPFPLTAMYKPPKIKAIDKIMQAGRVRGKGKTAPTSIQGVKQIIKALRSGEATIVLPDHVPSPQEGGEGVWVDFFGKPAYTMTLAAKLAHVKGVKTLFFCCERLPGGQGFDLHIRPVQGELNGDKAHDAAVFNRNAEYWIRRFPTQYLFMYNRYKMP | not soluble
17 | MSNVKHSKLLILGSGPAGYTAAVYAARANLKPVLVTGMQQGGQLTTTTEVENWPGDAEGLTGPALMERMKEHAERFDTEIVFDHINSVDLSSRPFRLTGDSQEYTCDALIISTGASAKYLGLESEEAFKGRGVSACATCDGFFYRNQKVAVVGGGNTAVEEALYLSNIASEVHLVHRRDSFRSEKILIDRLMDKVANGNIVLHTHRTLDEVLGDEMGVTGVRLKDTQSDMTENLDVMGVFIAIGHQPNSQIFEGQLEMKNGYIVVKSGLEGNATQTSIEGVFAAGDVMDHNYRQAITSAGTGCMAALDAERYLDSQGK | soluble
18 | MGSDKIHHHHHHMARFMGSETEYGISTPSAPFLSPIVTSTHAVVAYSTARGFGEHRVRWDYAQESPLRDTRGFDLRRYHQAPVVDPHAIGVANVFVPNGARFYVDHAHPEYSSPEVTNAWDAMVYDAAGDHILMQAVSDVASFTSQNRSVLDGHDPCPALKIYKNNVDGKGASYGSHENYLYSRETDFDVLAQALIPFFVCRQVIIGAGRVGLGPQGDKPGFQVSQRADYIEQEISLETTLNRGIINTRDEPHTDADHWGRLHVIIGDANMSQTANFLKFGMTSLVLDAIEAGVDFSELKLKNAVSEVAKVSHDLSLTHQLRLADGSELTAIDILRRYLDKVQPFAETPVEQRVTALWGEVLGLLENDLLSTSHLLDWTAKLALIKSFEARGLSINDPKMYLIDLQYSDIDPQKSLYHALVSKGRMKTLCSAQDIADAAATPPQDSRAYFRGRVMDKFGESVLAANWESLIVATSSAKEYRVHTSGLDTLTREEAGELVEKSATIDELIEGLEKENLTPLTAIQAI | not soluble
